± gives the uncertainty stated by the source.
Test: self-splicing fitness, log relative to wild type (ln ratio); higher = more splicing; Tetrahymena group I intron in knt gene, E. coli kanamycin selection, DiMSum; sequences stand for … in CUCUCU…GGAGGGAAAAGUUAUCAGGCAUGCACCUGGUAGCUAGUCUUUAAACCAAUAGAUUGCAUCGGUUUAAAAGGCAAGACCGUCAAAUUGCGGGAAAGGGGUCAACAGCCGUUCAGUACCAAGUCUCAGGGGAAACUUUGAGAUGGCCUUGCAAAGGGUAUGGUAAUAAGCUGACGGACAUGGUCCUAACCACGCAGCCAAGUCCUAAGUCAACAGAUCUUCUGUUGAUAUGGAUGCAGUUCACAGACUAAAUGUCGGUCGGGGAAGAUGUAUUCUUCUCAUAAGAUAUAGUCGGACCUCUCCUUAAUGGGAGCUAGCGGAUGAAGUGAUGCAACACUGGAGCCGCUGGGAACUAAUUUGUAUGCGAAAGUAUAUUGAUUAGUUUUGGAGUACUCGUGGUCG
Procedure, shortened: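 The eight P1ex-region nucleotides of an intron in the knt kanamycin-resistance gene on pET-22b(+) were all randomised and the library put into E. coli BL21(DE3). Six replicate transformations were grown overnight at 37°C or 30°C on LB agar with or without 25 μg/mL kanamycin, together with 100 μg/mL carbenicillin, 50 μM IPTG and 0.2% rhamnose. Colonies were pooled and amplicon-sequenced on an Illumina HiSeq 2500. Fitness from DiMSum is the error-weighted combination of wild-type-normalised replicate fold changes, kanamycin over none.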

Sequence | self-splicing fitness (ln) (30 °C) | self-splicing fitness (ln) (37 °C)
AAUUAGCAAUAUUACGCUCG | 0.0366 ± 0.13 | 0.217 ± 0.16
AAUUAGCAAUAUUACGCUUC | -2.91 ± 0.39 | -3.71 ± 0.39
AAUUAGCAAUAUUACGGAAG |  | -0.915 ± 0.42
AAUUAGCAAUAUUACGGGCU | -2.04 ± 0.23 | -1.64 ± 0.26
AAUUAGCAAUAUUACGGGUC | -1.55 ± 0.24 | -0.486 ± 0.24
AAUUAGCAAUAUUACGGGUG | -1.04 ± 0.066 | -0.54 ± 0.083
AAUUAGCAAUAUUACGGUAG | -4.2 ± 0.39 | -1.66 ± 0.24
AAUUAGCAAUAUUACGGUGC | -2.19 ± 0.26 | -3 ± 0.43
AAUUAGCAAUAUUACGUACC | -0.499 ± 0.21 | -0.307 ± 0.29
AAUUAGCAAUAUUACGUAGA | -1.75 ± 0.14 | -2.03 ± 0.17
AAUUAGCAAUAUUACGUCGA | -1.22 ± 0.14 | -0.488 ± 0.15
AAUUAGCAAUAUUACGUGUU | -1.05 ± 0.11 | -1.78 ± 0.13
AAUUAGCAAUAUUACGUUCA | -0.618 ± 0.1 | -0.409 ± 0.12
AAUUAGCAAUAUUACGUUGC | -3.47 ± 0.46 | -2.75 ± 0.38
AAUUAGCAAUAUUACGUUGU | -3.79 ± 0.15 | -1.72 ± 0.15
ACAAAGCAAUAUUACGACCA | -0.633 ± 0.12 | -0.407 ± 0.13
ACAAAGCAAUAUUACGACGG | -1.06 ± 0.07 | -0.665 ± 0.093
ACAAAGCAAUAUUACGAGAG | -2.93 ± 0.16 | -1.1 ± 0.1
ACAAAGCAAUAUUACGAGUC | -4.66 ± 0.25 | -2.95 ± 0.23
ACAAAGCAAUAUUACGAUUG | -2.14 ± 0.069 | -1.55 ± 0.092
ACAAAGCAAUAUUACGCAUG | -1.82 ± 0.075 | -0.868 ± 0.084
ACAAAGCAAUAUUACGCCGU | -2.44 ± 0.16 | -1.41 ± 0.21
ACAAAGCAAUAUUACGCCUC | -2.8 ± 0.28 | -2.2 ± 0.3
ACAAAGCAAUAUUACGCGAU | -2.75 ± 0.14 | -2.22 ± 0.16

Sequence | self-splicing fitness (ln) (30 °C) | self-splicing fitness (ln) (37 °C)
ACAAAGCAAUAUUACGCGCU | -0.245 ± 0.053 | 0.00495 ± 0.066
ACAAAGCAAUAUUACGCUCA | -0.782 ± 0.088 | 0.156 ± 0.11
ACAAAGCAAUAUUACGCUGG | -1.3 ± 0.095 | -0.426 ± 0.12
ACAAAGCAAUAUUACGGAAU | -3.21 ± 0.19 | -1.82 ± 0.19
ACAAAGCAAUAUUACGGAUC | -2.77 ± 0.12 | -0.403 ± 0.11
ACAAAGCAAUAUUACGGCGC | -0.996 ± 0.076 | 0.358 ± 0.12
ACAAAGCAAUAUUACGGCUC | -0.452 ± 0.078 | -0.217 ± 0.12
ACAAAGCAAUAUUACGGGCA | -1.56 ± 0.069 | -1.28 ± 0.056
ACAAAGCAAUAUUACGGUCC | -1.7 ± 0.11 | -0.977 ± 0.16
ACAAAGCAAUAUUACGGUUC | -3.12 ± 0.13 | -1.93 ± 0.17
ACAAAGCAAUAUUACGUAGU | -2.57 ± 0.085 | -1.43 ± 0.095
ACAAAGCAAUAUUACGUCCC | -0.873 ± 0.23 | -1.78 ± 0.25
ACAAAGCAAUAUUACGUUUA | -3.55 ± 0.13 | -0.482 ± 0.088
ACACAGCAAUAUUACGAAGA | -2.48 ± 0.1 | -1.99 ± 0.12
ACACAGCAAUAUUACGACAG | -1.62 ± 0.054 | -0.914 ± 0.077
ACACAGCAAUAUUACGAUAA | -2.46 ± 0.098 | -1.97 ± 0.11
ACACAGCAAUAUUACGCACG | -0.797 ± 0.093 | -0.607 ± 0.12
ACACAGCAAUAUUACGCGAG | -1.74 ± 0.053 | -0.504 ± 0.061
ACACAGCAAUAUUACGCGGA | -1.98 ± 0.072 | -1.1 ± 0.07
ACACAGCAAUAUUACGGAGC | -2.36 ± 0.13 | -1.52 ± 0.12
ACACAGCAAUAUUACGGAGG | -2.69 ± 0.076 | -2.15 ± 0.098
ACACAGCAAUAUUACGGGCU | -2.08 ± 0.093 | -1.11 ± 0.13
ACACAGCAAUAUUACGGUUU | -1.05 ± 0.04 | -0.00178 ± 0.06
ACACAGCAAUAUUACGUAAC | -3.39 ± 0.12 | -1.81 ± 0.14

Sequence | self-splicing fitness (ln) (30 °C) | self-splicing fitness (ln) (37 °C)
ACACAGCAAUAUUACGUAAU | -2.76 ± 0.085 | -1.73 ± 0.12
ACACAGCAAUAUUACGUAGA | -3.64 ± 0.16 | -1.38 ± 0.11
ACACAGCAAUAUUACGUAUU | -3.09 ± 0.089 | -2.29 ± 0.13
ACACAGCAAUAUUACGUGAA | -1.84 ± 0.055 | -1.11 ± 0.079
ACACAGCAAUAUUACGUGUG | -3.55 ± 0.1 | -1.44 ± 0.065
ACACAGCAAUAUUACGUUAA | -2.79 ± 0.13 | -2.12 ± 0.12
ACAGAGCAAUAUUACGAAAA |  | -3.05 ± 0.4
ACAGAGCAAUAUUACGACUG | -1.05 ± 0.11 | -1.54 ± 0.15
ACAGAGCAAUAUUACGAGGU | -3.36 ± 0.11 | -2.66 ± 0.15
ACAGAGCAAUAUUACGAUGU | -3.39 ± 0.16 | -2.38 ± 0.18
ACAGAGCAAUAUUACGCCCG | -3.2 ± 0.21 | -1.63 ± 0.18
ACAGAGCAAUAUUACGCUAU | -3.38 ± 0.27 | -1.12 ± 0.19
ACAGAGCAAUAUUACGCUUU | -2.28 ± 0.26 | -2.45 ± 0.23
ACAGAGCAAUAUUACGGCAA | -0.636 ± 0.22 | -2.08 ± 0.33
ACAGAGCAAUAUUACGGCCU | -3.08 ± 0.29 | -2.6 ± 0.25
ACAGAGCAAUAUUACGGCGU | -1.24 ± 0.12 | -0.0954 ± 0.11
ACAGAGCAAUAUUACGGGGC | -3.53 ± 0.17 | -2.73 ± 0.22
ACAGAGCAAUAUUACGGGGU | -4.03 ± 0.34 | -2.39 ± 0.3
ACAGAGCAAUAUUACGGGUC | -2.99 ± 0.18 | -2.89 ± 0.27
ACAGAGCAAUAUUACGGUCC | -2.18 ± 0.14 | -2.05 ± 0.39
ACAGAGCAAUAUUACGUAAC | -2.71 ± 0.11 | -3.27 ± 0.26
ACAGAGCAAUAUUACGUAGC | -3.27 ± 0.33 | -2.56 ± 0.41
ACAGAGCAAUAUUACGUAUA | -3.37 ± 0.26 | -2.72 ± 0.31
ACAGAGCAAUAUUACGUGAG | -2.08 ± 0.11 | -1.55 ± 0.1

Sequence | self-splicing fitness (ln) (30 °C) | self-splicing fitness (ln) (37 °C)
ACAGAGCAAUAUUACGUGCG | -2.89 ± 0.29 | -1.75 ± 0.28
ACAUAGCAAUAUUACGAAGG | -3.69 ± 0.28 | -1.33 ± 0.18
ACAUAGCAAUAUUACGACCU | -0.446 ± 0.1 | 0.527 ± 0.13
ACAUAGCAAUAUUACGACUG | -0.814 ± 0.065 | -0.36 ± 0.09
ACAUAGCAAUAUUACGAGUU | -3.28 ± 0.18 | -2.28 ± 0.2
ACAUAGCAAUAUUACGAUAU | -2.69 ± 0.15 | -1.97 ± 0.14
ACAUAGCAAUAUUACGCCUA | -1.7 ± 0.24 | -0.307 ± 0.2
ACAUAGCAAUAUUACGCCUG | -0.96 ± 0.16 | -0.622 ± 0.15
ACAUAGCAAUAUUACGCGAU | -3.37 ± 0.21 | -2.35 ± 0.25
ACAUAGCAAUAUUACGCGCG | -0.8 ± 0.12 | -0.126 ± 0.16
ACAUAGCAAUAUUACGCGUC | -3.71 ± 0.18 | -3.26 ± 0.28
ACAUAGCAAUAUUACGCGUG | -2.8 ± 0.1 | -1.28 ± 0.12
ACAUAGCAAUAUUACGCUAG | -2 ± 0.11 | -0.855 ± 0.13
ACAUAGCAAUAUUACGCUCG | -0.317 ± 0.091 | 0.247 ± 0.12
ACAUAGCAAUAUUACGGGAA | -2.36 ± 0.11 | -1.7 ± 0.13
ACAUAGCAAUAUUACGGGAC | -3.23 ± 0.14 | -1.37 ± 0.12
ACAUAGCAAUAUUACGGGGA | -2.65 ± 0.29 | -1.92 ± 0.19
ACAUAGCAAUAUUACGUCGA | -1.95 ± 0.18 | -1.64 ± 0.15
ACAUAGCAAUAUUACGUGCA | -0.639 ± 0.053 | 0.349 ± 0.063
ACAUAGCAAUAUUACGUGGC | -3.8 ± 0.23 | -3.09 ± 0.27
ACAUAGCAAUAUUACGUGGU | -3.44 ± 0.16 | -3.3 ± 0.24
ACCAAGCAAUAUUACGAACG | -1.61 ± 0.076 | -0.581 ± 0.087
ACCAAGCAAUAUUACGAAGU | -3.09 ± 0.14 | -1.31 ± 0.14

Source: the supplement of paper PMC7877785
